B1: CPEB3 Ribozyme (parent)
chain: UAACAGGGGGCCACAGCAGAAGCGUUCACGUCGCAGCCCCUGUCAGAUUCUGGUGAAUCUGCGAAUUCUGCUGUAUAUCUC

Variants of: B1
Assay: self-cleavage, relative activity (ratio to wild type); higher = more cleavage; in vitro, sequencing
In short: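 After error-prone PCR and barcoding, CPEB3 ribozyme mutant libraries were transcribed with T7 RNA polymerase at 37°C for 5 hours, then given 15 min with DNase I before an EDTA stop, and they cleaved during both steps. Reverse transcription with template switching preceded Illumina sequencing. Relative activity divides a variant's cleaved/total read fraction by the unmutated ribozyme's. At least 5 reads were required per variant, and three batches were averaged.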

| Variant | self-cleavage |
| --- | --- |
| UAACAGGGAGCCACAGCAGAAGCGUUCACGUCGCAGCCCCUGUCAGAUUCUGGUGAAUCUGCGAAUUCUGCUGUAAAUCUC [G9A U76A] | 0.45 |
| UAACAGGGAGCCACAGCAGAAGCGUUCACGUCGCAGCCCCUGUCAGAUUCUGGUGAAUCUGCGAAUUCUGCUGUACAUCUC [G9A U76C] | 0.34 |
| UAACAGGGAGCCACAGCAGAAGCGUUCACGUCGCAGCCCCUGUCAGAUUCCGGUGAAUCUGCGAAUUCUGCUGUAUAUCUC [G9A U51C] | 0.37 |
| UAACAGGGCGCCACAGCAGAAGCGUUCACGUCGCAGCCCCUGUCAGAUUCUGGUGAUUCUGCGAAUUCUGCUGUAUAUCUC [G9C A57U] | 0.24 |
| UAACAGGGCGCCACAGCAGAAGCGUUCACGUCGCAGCCCCUGUCAGAUUCUGGUGAAUCUGCGAAUCCUGCUGUAUAUCUC [G9C U67C] | 0.11 |
| UAACAGGGAGCCACAGCAGAAGCGUUCACGUCGCAGCCCCUGUCAGAUUCUGGAGAAUCUGCGAAUUCUGCUGUAUAUCUC [G9A U54A] | 0.13 |
| UAACAGGGAGCCACAGCAGAAGCGUUCACGUCGCAGCCCCUGUCAGAUUCUGGCGAAUCUGCGAAUUCUGCUGUAUAUCUC [G9A U54C] | 0.33 |
| UAACAGGGCGCCACAGCAGAAGCGUUCACGUCGCAGCCCCUGUCAGAUUCUGGUGAAGCUGCGAAUUCUGCUGUAUAUCUC [G9C U58G] | 0.06 |
| UAACAGGGAGCCACAGCAGAAGCGUUCACGUCGCAGCCCCUGUCAGAUUCUGGUGAAUCUGCGAAUUCUGCUGUAUAUCAC [G9A U80A] | 0.21 |
| UAACAGGGAGCCACAGCAGAAGCGUUCACGUCGCAGCCCCUGUCAGAUUCUGGUGAAUCUGCGAAUUCUGCUGUAUAUCCC [G9A U80C] | 0.23 |
| UAACAGGGCGCCACAGCAGAAGCGUUCACGUCGCAGCCCCUGUCAGAUUCUGGUGAAUCUGCGAAUUCUGCUGUAUAUCUC [G9C] | 0.24 |
| UAACAGGGCGCCACAGCAGGAGCGUUCACGUCGCAGCCCCUGUCAGAUUCUGGUGAAUCUGCGAAUUCUGCUGUAUAUCUC [G9C A20G] | 0.06 |
| UAACAGGGCGCCACAGCAGAAGCGUUCACGUCGCGGCCCCUGUCAGAUUCUGGUGAAUCUGCGAAUUCUGCUGUAUAUCUC [G9C A35G] | 0.27 |
| UAACAGGGCGCCACAGCAGAAGCGUUCACGUCGCAGCCCCUGUCAGAUUCUGGUGAAUCUGCGAAUUCUGGUGUAUAUCUC [G9C C71G] | 0.05 |
| UAACAGGGCGCCACAGCAGAAGCGUUCACAUCGCAGCCCCUGUCAGAUUCUGGUGAAUCUGCGAAUUCUGCUGUAUAUCUC [G9C G30A] | 0.1 |
| UAACAGGGCGCCACAGCAGAAGCGUUCACUUCGCAGCCCCUGUCAGAUUCUGGUGAAUCUGCGAAUUCUGCUGUAUAUCUC [G9C G30U] | 0.22 |
| UAACAGGGCGCCACAGCAGAAGCGUUCACCUCGCAGCCCCUGUCAGAUUCUGGUGAAUCUGCGAAUUCUGCUGUAUAUCUC [G9C G30C] | 0.06 |
| UAACAGGGCGCCACAGCAGAAGCGUUCACGUCGCAGCCCCUGUCAGAUUCUGGUGAAUCUGCGAAUUCUGCUGUAUCUCUC [G9C A77C] | 0.18 |
| UAACAGGGCGCCACAGCAGAAGCGUUCACGUCGCAGCCCCCGUCAGAUUCUGGUGAAUCUGCGAAUUCUGCUGUAUAUCUC [G9C U41C] | 0.15 |
| UAACAGGGCGCCACAGCAGAAGCGUUCACGUCGCAGCCCCUGUCAGAUUCUGGUGAAUCCGCGAAUUCUGCUGUAUAUCUC [G9C U60C] | 0.25 |
| UAACAGGGCGCCACAGCAGAAGCGUUCACGUCGCAGCCCCUGUCAGAUUCUGGUGAAUCAGCGAAUUCUGCUGUAUAUCUC [G9C U60A] | 0.15 |
| UAACAGGGCGCCACAGCAGAAGCGUUCACGUCGCAGCCCCUGUCAGAUUCAGGUGAAUCUGCGAAUUCUGCUGUAUAUCUC [G9C U51A] | 0.09 |
| UAACAGGGCGCCACAGCAGAAGCGUUCACGUCGAAGCCCCUGUCAGAUUCUGGUGAAUCUGCGAAUUCUGCUGUAUAUCUC [G9C C34A] | 0.14 |

| Variant | self-cleavage |
| --- | --- |
| UAACAGGGCGCCACAGCUGAAGCGUUCACGUCGCAGCCCCUGUCAGAUUCUGGUGAAUCUGCGAAUUCUGCUGUAUAUCUC [G9C A18U] | 0.08 |
| UAACAGGGCGCCACAGCGGAAGCGUUCACGUCGCAGCCCCUGUCAGAUUCUGGUGAAUCUGCGAAUUCUGCUGUAUAUCUC [G9C A18G] | 0.16 |
| UAACAGGGCGCCACAGCAGAAGCGUUCACGUCGCAGCCCCUGUCCGAUUCUGGUGAAUCUGCGAAUUCUGCUGUAUAUCUC [G9C A45C] | 0.25 |
| UAACAGGGCGCCACAGCAGAAGCGUUCACGUCGCAGCCCCUGUCUGAUUCUGGUGAAUCUGCGAAUUCUGCUGUAUAUCUC [G9C A45U] | 0.13 |
| UAACAGGGAGCCACAGCAGAAGCGUUCACGUCGCAGCCCCUGUCAGAUUCUGGUGAAUCUGCGAAUUCCGCUGUAUAUCUC [G9A U69C] | 0.1 |
| UAACAGGGAGCCACAGCAGAAGCGUUCACGUCGCAGCCCCUGUCAGAUUCUGGUGAAUCUGCGAAUUCAGCUGUAUAUCUC [G9A U69A] | 0.21 |
| UAACAGGGAGCCACAGCAGAAGCGUUCACGUCGCAGCCCCUGUCAGAUUCUGGUGAAUCUGCGAAUUCGGCUGUAUAUCUC [G9A U69G] | 0.2 |
| UAACAGGGAGCCACAGCAGAAGCGUUCACGUCGCAGCCCCUGUCAGAUUCUGGUGAAUCUGCGAAAUCUGCUGUAUAUCUC [G9A U66A] | 0.11 |
| UAACAGGGAGCCACAGCAGAAGCGUUCACGUCGCAGCCCCUGUCAGAUUCUGGUGAAUCUGCGAACUCUGCUGUAUAUCUC [G9A U66C] | 0.24 |
| UAACAGGGCGCCACAGCAGAAGCGUUCACGCCGCAGCCCCUGUCAGAUUCUGGUGAAUCUGCGAAUUCUGCUGUAUAUCUC [G9C U31C] | 0.22 |
| UAACAGGGCGCCACAGCAGAAGCGUUCACGACGCAGCCCCUGUCAGAUUCUGGUGAAUCUGCGAAUUCUGCUGUAUAUCUC [G9C U31A] | 0.19 |
| UAACAGGGCGCCACAGCAGAAGCGUUCACGUCGCAGCCCCUGUCAGAUUCUAGUGAAUCUGCGAAUUCUGCUGUAUAUCUC [G9C G52A] | 0.55 |
| UAACAGGGCGCCACAGCAGAAGCGUUCACGUCGCAGCCCCUGUCAGAUUCUGGCGAAUCUGCGAAUUCUGCUGUAUAUCUC [G9C U54C] | 0.41 |
| UAACAGGGCGCCACAGCAGAAGCGUUCACGUCGCAGCCCCUGUCAGAUUCUGGUAAAUCUGCGAAUUCUGCUGUAUAUCUC [G9C G55A] | 0.41 |
| UAACAGGGCGCCACAGCAGAAGCGUUCACGUCGCAGCCCCUGUCAGAUUCUGGUGAAUCUGCGAAUUCUGCUGUACAUCUC [G9C U76C] | 0.3 |
| UAACAGGGCGCCACAGCAGAAGCGUUCGCGUCGCAGCCCCUGUCAGAUUCUGGUGAAUCUGCGAAUUCUGCUGUAUAUCUC [G9C A28G] | 0.07 |
| UAACAGGGCGCCACAGCAGAAGCGUUCACGUCGCAGCCCCUGCCAGAUUCUGGUGAAUCUGCGAAUUCUGCUGUAUAUCUC [G9C U43C] | 0.13 |
| UAACAGGGCGCCACAGCAGAAGCGUUCACGUCGCAGCCCCUGUCAGGUUCUGGUGAAUCUGCGAAUUCUGCUGUAUAUCUC [G9C A47G] | 0.21 |
| UAACAGGGCGCCACAGCAGAAGCGUUCACGUCGCAGCCCCUGUCAGAUUCUGGUGAAUCUGCGGAUUCUGCUGUAUAUCUC [G9C A64G] | 0.08 |
| UAACAGGGCGCCACAGCAGAAGCGUUCACGUCGCAGCCCCUGUCAGAUUCUGGUGAAUCUGCGUAUUCUGCUGUAUAUCUC [G9C A64U] | 0.23 |
| UAACAGGGCGCCACAGCAGAAGCGUUCACGUCGCAGCCCCUGUCAGAUUCUGGUGAAUCUGCGAAUUCUGCUGCAUAUCUC [G9C U74C] | 0.26 |
| UAACAGGGAGCCACAGCAGAAGCGUUCACGUCGCAGCCCCUGUCAGAUUCUGGUGAAUCCGCGAAUUCUGCUGUAUAUCUC [G9A U60C] | 0.14 |
| UAACAGGGAGCCACAGCAGAAGCGUUCACGUCGCAGCCCCUGUCAGAUUCUGGUGAAUCAGCGAAUUCUGCUGUAUAUCUC [G9A U60A] | 0.22 |

| Variant | self-cleavage |
| --- | --- |
| UAACAGGGCGCCACCGCAGAAGCGUUCACGUCGCAGCCCCUGUCAGAUUCUGGUGAAUCUGCGAAUUCUGCUGUAUAUCUC [G9C A15C] | 0.34 |
| UAACAGGGCGCCACUGCAGAAGCGUUCACGUCGCAGCCCCUGUCAGAUUCUGGUGAAUCUGCGAAUUCUGCUGUAUAUCUC [G9C A15U] | 0.1 |
| UAACAGGGCGCCACGGCAGAAGCGUUCACGUCGCAGCCCCUGUCAGAUUCUGGUGAAUCUGCGAAUUCUGCUGUAUAUCUC [G9C A15G] | 0.39 |
| UAACAGGGCGCCACAGCAGAAGCGCUCACGUCGCAGCCCCUGUCAGAUUCUGGUGAAUCUGCGAAUUCUGCUGUAUAUCUC [G9C U25C] | 0.07 |
| UAACAGGGCGCCACAGCAGAAGCGUUCACGUCGCAGCCCCUGUCAGAUUCUGGUGAAUCUGCGAAUUCUGCUGUAUAUAUC [G9C C79A] | 0.58 |
| UAACAGGGAGCCACAGCAGAAGCGUUCACGUCGCAGCCCCUGUCAGAUUCUGGUGAAUCUGCGAAUACUGCUGUAUAUCUC [G9A U67A] | 0.11 |
| UAACAGGGAGCCACAGCAGAAGCGUUCACGUCGCAGCCCCUGUCAGAUUCUGGUGAAUCUGCGAAUCCUGCUGUAUAUCUC [G9A U67C] | 0.08 |
| UAACAGGGAGCCACAGCAGAAGCGUUCACGUCGCAGCCCCUGUCAGAUUCUGGUGAAGCUGCGAAUUCUGCUGUAUAUCUC [G9A U58G] | 0.08 |
| UAACAGGGAGCCACAGCAGAAGCGUUCACGUCGCAGCCCCUGUCAGAUUCUGGUGAAACUGCGAAUUCUGCUGUAUAUCUC [G9A U58A] | 0.07 |
| UAACAGGGAGCCACAGCAGAAGCGUUCACGUCGCAGCCCCUGUCAGAUUCUGGUGAACCUGCGAAUUCUGCUGUAUAUCUC [G9A U58C] | 0.25 |
| UAACAGGGAGCCACAGCAGAAGCGUUCACGUCGCAGCCCCUGUCAGAUUCUGGUGAAUCUGCGAAUUCUGCUGUAUAACUC [G9A U78A] | 0.44 |
| UAACAGGGAGCCACAGCAGAAGCGUUCACGUCGCAGCCCCUGUCAGAUUCUGGUGAAUCUGCGAAUUCUGCUGUAUACCUC [G9A U78C] | 0.25 |
| UAACAGGGCGCCACAGCAGAAGCGUUCACGUCGCAGCCCCUGUCAGAUUCUGGUGAAUCUGCGAAUUCUGCUGUGUAUCUC [G9C A75G] | 0.17 |
| UAACAGGGCGCCACAGCAGAUGCGUUCACGUCGCAGCCCCUGUCAGAUUCUGGUGAAUCUGCGAAUUCUGCUGUAUAUCUC [G9C A21U] | 0.23 |
| UAACAGGGCGCCACAGCAGAAGCGUUCACGUCGCAGCCCCUGUCAGAUUCUGGUGAAUCUGCGAAUUCUGCCGUAUAUCUC [G9C U72C] | 0.37 |
| UAACAGGGCGCCACAGCAGAAGCGUUCACGUCGCAGCCCCUGUCAGAUUCUGGUGAAUCUGCGAAUUCUGCGGUAUAUCUC [G9C U72G] | 0.09 |
| UAACAGGGCGCCACAGCAGAAGCGUUCACGUCGCAGCCCCUGUCAGAUUCUGGUGAAUCUGCGAGUUCUGCUGUAUAUCUC [G9C A65G] | 0.32 |
| UAACAGGGAGCCACAGCAGAAGCGUUCACGUCGCAGCCCCUGUCAGAUUCUGGUGAAUCUGCGAAUUCUGCAGUAUAUCUC [G9A U72A] | 0.23 |
| UAACAGGGAGCCACAGCAGAAGCGUUCACGUCGCAGCCCCUGUCAGAUUCUGGUGAAUCUGCGAAUUCUGCCGUAUAUCUC [G9A U72C] | 0.39 |
| UAACAGGGAGCCACAGCAGAAGCGUUCACGUCGCAGCCCCUGUCAGAUUCUGGUGAAUCUGCGAAUUCUGCUGCAUAUCUC [G9A U74C] | 0.6 |
| UAACAGGGCGCCACAGCAGAAGCGUUCACGUCGCAGCCCCUGUCAGAUUCUGGUGGAUCUGCGAAUUCUGCUGUAUAUCUC [G9C A56G] | 0.24 |
| UAACAGGGCGCCACAGCAGAAGCGUUCACGUCGCAGCCCCUGUUAGAUUCUGGUGAAUCUGCGAAUUCUGCUGUAUAUCUC [G9C C44U] | 0.18 |

Reference: the RNAGym collection of RNA variant scans (doi:10.1093/nar/gkz1192)
